Laboratory results as given in patent publication US20220064329A1 (Novo Nordisk, published 2022).
Substitutions are numbered along the chain they refer to. Names may count otherwise. Read-outs that look alike come from different tables or passages of the source. Blank lines part the entries; values can stand above or below the binder they belong to.

Tests used:
[1] = biological target: T1, recombinant human activated FVII (FVIIa) (human, UniProt P08709 61-212; P08709 213-466, ten glutamate residues of the Gla domain may be gamma-carboxylated); assay: cell-based or functional assay
T1 sequence 1: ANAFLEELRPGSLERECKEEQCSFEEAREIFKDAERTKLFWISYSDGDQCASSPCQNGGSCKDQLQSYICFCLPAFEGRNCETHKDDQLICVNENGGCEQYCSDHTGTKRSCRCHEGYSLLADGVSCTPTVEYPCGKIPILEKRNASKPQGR
T1 sequence 2: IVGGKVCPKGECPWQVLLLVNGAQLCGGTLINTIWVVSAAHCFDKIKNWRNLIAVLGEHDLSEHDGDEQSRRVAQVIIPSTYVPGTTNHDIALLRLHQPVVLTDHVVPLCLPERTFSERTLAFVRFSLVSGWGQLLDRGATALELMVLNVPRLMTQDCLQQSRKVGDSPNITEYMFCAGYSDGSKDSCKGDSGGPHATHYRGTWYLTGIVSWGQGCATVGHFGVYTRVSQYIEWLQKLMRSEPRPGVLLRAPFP

[2] = biological target: T1, recombinant human activated FVII (FVIIa); assay: cell-based or functional assay; remark: listed apart in the source
[3] = biological target: T2, sTLT1 (SEQ ID No: 3 with six histidine residues added at the C-terminus) (human, UniProt Q86YW5 16-162); assay: dissociation constant listed with the stimulatory activities (SPR)
T2 construct: Soluble TLT-1 used in SPR
T2 sequence: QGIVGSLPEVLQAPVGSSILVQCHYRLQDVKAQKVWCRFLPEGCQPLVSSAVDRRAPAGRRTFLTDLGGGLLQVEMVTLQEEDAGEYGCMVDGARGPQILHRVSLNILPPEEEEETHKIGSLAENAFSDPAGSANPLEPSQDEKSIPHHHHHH

[4] = biological target: T1, recombinant human activated FVII (FVIIa); assay: as above
[5] = biological target: T2, sTLT1 (SEQ ID No: 3 with six histidine …); assay: KD (TLT-1) listed for the biAbs of Example 30 (SPR value of Table 21)
Experimental: (§1) Binding of sTLT1 (corresponding to SEQ ID No: 3 with six histidine residues added at the C-terminus) to biAb from (Example 4) was probed by surface plasmon resonance (Biacore T200) at 25° C. Anti-human IgG was immobilised on a CM5 sensor chip (both supplied by GE Healthcare) using standard amine coupling chemistry. Purified biAbs according to Table 21 (1 nM) were injected at a flow rate of 10 μl/min for 1 min. Subsequently, sTLT1, between 0 and 60 μM, were injected at a flow rate of […] for 3 min to allow for binding to the biAb followed by a 3 min buffer injection allowing for dissociation from the biAb. The running buffer was prepared by diluting 10-fold the 10×HBS-P buffer (supplied by GE Healthcare) and supplemented with 1 mg/ml BSA and 5 mM CaCl₂) to give 10 mM HEPES, 150 mM NaCl, 0.05% v/v Polysorbate 20, pH 7.4, 5 mM CaCl₂), 1 mg/ml bovine serum albumin (BSA). The running buffer was also used for dilution of biAb and sTLT1 samples. Regeneration of the chip was achieved using recommended regeneration buffer consisted of 3M MgCl2 (supplied by GE Healthcare). Binding data were analysed according to a 1:1 model using BiaEvaluation 4.1 supplied by the manufacturer (Biacore AB, Uppsala, Sweden).

[6] = biological target: T2, sTLT1 (SEQ ID No: 3 with six histidine …); assay: SPR, Biacore T200, 25 C; biAb captured on anti-human IgG, sTLT1 injected; 1:1 model
Experimental: as §1

murine FVII(a) = biological target: T3, murine FVII(a) (mouse, UniProt P70375 42-446); assay: not told; stated as the reason for co-administering human FVII(a) in the mouse model
T3 sequence (looked up): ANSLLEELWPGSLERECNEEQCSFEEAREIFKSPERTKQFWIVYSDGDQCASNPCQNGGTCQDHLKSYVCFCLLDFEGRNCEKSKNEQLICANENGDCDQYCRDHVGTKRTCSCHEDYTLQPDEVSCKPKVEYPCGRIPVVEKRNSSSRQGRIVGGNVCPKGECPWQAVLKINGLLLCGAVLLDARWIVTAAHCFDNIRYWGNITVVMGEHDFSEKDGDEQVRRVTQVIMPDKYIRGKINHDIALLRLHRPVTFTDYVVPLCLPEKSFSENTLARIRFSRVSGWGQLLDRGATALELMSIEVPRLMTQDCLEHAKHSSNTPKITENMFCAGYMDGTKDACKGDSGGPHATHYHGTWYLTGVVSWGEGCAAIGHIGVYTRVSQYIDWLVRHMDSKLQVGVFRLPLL

[7] = biological target: T4, recombinant human activated Factor VII (FVIIa) (human, UniProt P08709 61-212; P08709 213-466, Gla domain: ten glutamate residues may be gamma-carboxylated); assay: cell-based or functional assay
T4 sequence 1: T1 sequence 1
T4 sequence 2: T1 sequence 2

[8] = biological target: T4, recombinant human activated Factor VII …; assay: SPR (Biacore T200), captured antibody, FVIIa injected at 5-135 nM, 1:1 model
Experimental: Anti-murine IgG (by GE Healthcare) was immobilised on a CM4 sensor chip using standard amine coupling chemistry kit (both supplied by GE Healthcare). […] The running buffer was prepared by diluting 10-fold the 10×HBS-P buffer (supplied by GE Healthcare) and supplemented with 1 mg/ml BSA and 5 mM CaCl₂) to give 10 mM HEPES, 150 mM NaCl, 0.05% v/v Polysorbate 20(P20), pH 7.4, 5 mM CaCl₂), 1 mg/ml bovine serum albumin (BSA). […] Regeneration of the chip was achieved using regeneration buffer consisting of 10 mM Gly-HCl pH 1.7 (supplied by GE Healthcare). Binding data were analysed according to a 1:1 model using BiaEvaluation 4.1 supplied by the manufacturer (Biacore AB, Uppsala, Sweden).

Stimulation (fold): FXa generated by FVIIa with lipidated TLT-1 and 100 nM biAb, relative to free FVIIa [1]: 29.2 fold
Stimulation (fold): FXa generated by FVIIa with lipidated TLT-1 and 100 nM biAb, relative to free FVIIa [2]: 29.2 fold
Kd [3]: 2.9 nM
Kd [4]: 0.06 nM
Kd [5]: 2.9 nM
Kd [6]: 2.9 nM
B1: biAb0001 (bispecific antibody, human IgG4 S228P, kappa)
heavy 1: QVQLQESGPGLVKPSQTLSLTCTVSGYSISSDSAWSWIRQPPGKGLEWIGYIQYSGSTNYNPSLKSRVTISRDTSKNQFSLKLSSVTAADTAVYYCARSVNYYGNSFAVGYWGQGTLVTVSSASTKGPSVFPLAPCSRSTSESTAALGCLVKDYFPEPVTVSWNSGALTSGVHTFPAVLQSSGLYSLSSVVTVPSSSLGTKTYTCNVDHKPSNTKVDKRVESKYGPPCPPCPAPEFLGGPSVFLFPPKPKDTLMISRTPEVTCVVVDVSQEDPEVQFNWYVDGVEVHNAKTKPREEQFNSTYRVVSVLTVLHQDWLNGKEYKCKVSNKGLPSSIEKTISKAKGQPREPQVYTLPPSQEEMTKNQVSLTCLVKGFYPSDIAVEWESNGQPENNYKTTPPVLDSDGSFLLYSKLTVDKSRWQEGNVFSCSVMHEALHNHYTQKSLSLSLGK
light 1: EIVLTQSPATLSLSPGERATLSCRASQGISDYLHWYQQKPGEAPRLLIKYTSQPATGIPARFSGSGSGTDFTLTISSLEPEDFAVYYCQNGHSFPLTFGQGTKLEIKRTVAAPSVFIFPPSDEQLKSGTASVVCLLNNFYPREAKVQWKVDNALQSGNSQESVTEQDSKDSTYSLSSTLTLSKADYEKHKVYACEVTHQGLSSPVTKSFNRGEC
heavy 2: not shown
light 2: DIVMTQTPLSSPVTLGQPASISCRSSQSLVHRQGNTYFHWLQQRPGQPPRLLIYKVSNRFSGVPDRFSGSGAGTDFTLKISRVEAEDVGVYYCSQSTHVPYTFGQGTKLEIKRTVAAPSVFIFPPSDEQLKSGTASVVCLLNNFYPREAKVQWKVDNALQSGNSQESVTEQDSKDSTYSLSSTLTLSKADYEKHKVYACEVTHQGLSSPVTKSFNRGEC
notes: Duobody, constant domain type H (IgG4): anti-FVII(a) arm mAb0865, anti-TLT-1 arm mAb1076; also called anti-FVII(a)/anti-TLT-1 bispecific antibody; mAb0865 x mAb1076

binding result (murine FVII(a)): no binding
B2: biAb0001 (bispecific antibody, human IgG4 S228P, kappa)
heavy 1: B1 heavy 1
light 1: B1 light 1
heavy 2: not shown
light 2: B1 light 2
notes: also called anti-FVII(a)/anti-TLT-1 bispecific antibody; mAb0865 x mAb1076

Stimulation (fold): FXa generated by FVIIa with lipidated TLT-1 and 100 nM biAb, relative to free FVIIa [1]: 11.1 fold
Kd [3]: 320 nM
Kd [4]: 0.06 nM
Kd [5]: 320 nM
Kd [6]: 320 nM
B3: biAb0090 (bispecific antibody, human IgG4 S228P, kappa)
heavy 1: B1 heavy 1
light 1: B1 light 1
heavy 2: not shown
light 2: B1 light 2 with Q33N
notes: Duobody, constant domain type H (IgG4): anti-FVII(a) arm mAb0865, anti-TLT-1 arm mAb1049; also called mAb0865 x mAb1049

Stimulation (fold): FXa generated by FVIIa with lipidated TLT-1 and 100 nM biAb, relative to free FVIIa [1]: 18.7 fold
Kd [3]: 19 nM
Kd [4]: 0.06 nM
Kd [5]: 19 nM
Kd [6]: 19 nM
B4: biAb0015 (bispecific antibody, human IgG4 S228P, kappa)
heavy 1: B1 heavy 1
light 1: B1 light 1
heavy 2: not shown
light 2: B1 light 2 with Q33P
notes: Duobody, constant domain type H (IgG4): anti-FVII(a) arm mAb0865, anti-TLT-1 arm mAb1038; also called mAb0865 x mAb1038

AT inhibition (kinh %) [7]: 109%
Kd [8]: 0.029 nM
B5: mAb0048 (antibody, human IgG4 S228P, kappa, V domains shown)
VH: DVQLQESGPGLVEPSQSLSLTCTVTGYSITSDCAWSWIRQFPGNKLEWMGYINYSGSTNYNPSLKSRISVTRDTSKNQFFLRLSSVTAEDTATYYCTRSVNYYGNSFAVGYWGQGTSVTVSS
VL: DIVMTQSPATLSVTAGDRVSLSCRASQGISDYLHWYQQKSHESPRLLIKYTSQPVSGIPSRFSGSGSGSEFTLSINSVEPEDVGVYYCQNGHSFPLTFGAGTKLELKR
notes: murine variable domains, human IgG4 S228P constant domain (type A), human kappa; also called 11F2 murine/human chimera
